# Data from PMC9067936, “SHIP164 is a chorein motif lipid transfer protein that controls endosome–Golgi membrane traffic” (The Journal of Cell Biology, 2022).
# B1: 3XFLAG-SHIP164_(Δ901–1099) (natural protein)
# chain: not shown
# notes: SHIP164 (UHRF1BP1L), human, codon-optimised ORF from Genscript; construct lacking the predicted unstructured segment, residues 901-1099; Seen as a tail-to-tail dimer in vitro; also called 3×FLAG-SHIP164_(Δ901–1099); UHRF1BP1L; source: Expi293F, transfected, purified (anti-FLAG M2 resin, gel filtration on Superdex 200); not shown: 3xFLAG, N-terminal, kept
# B2: MBP-SHIP164 fusion (MBP fused to the N-terminus of SHIP164_(Δ901–1099)) (natural protein)
# chain: not shown
# notes: SHIP164 (UHRF1BP1L), human, codon-optimised ORF; lacks residues 901-1099; Probably made in Expi293F and purified as m1, possibly with a 3xFLAG tag as well; not shown: MBP (E. coli MBP residues 27–392 and two additional alanines), N-terminal, kept
# Biological target: the molecule itself
# Assay: negative-stain electron microscopy; 2D class averages of negatively stained purified protein (50 nM, 2% uranyl acetate, carbon-coated copper grids); MBP densities used to locate the N-termini
row,Protein,stoichiometry N
1,B1,2
2,B2,2
